{"source": "paper doi:10.1101/2023.08.30.554051", "target": "human skeletal myosin IIa subfragment-1 (S1), oligonucleotide-labeled, on DNA origami-based thick filament (human)", "test": "high-speed atomic force microscopy"}
{"substance": "actin filament (from UniProt P68135 1-377) (natural protein)", "values": [{"measurement": "duty ratio", "result": 0.87}, {"measurement": "mean detachment time", "result": 0.17, "unit": "s"}, {"measurement": "time constant of the attachment time", "result": 1.1, "unit": "s"}, {"measurement": "time constant of the detachment time (fast)", "result": 0.063, "unit": "s"}, {"measurement": "time constant of the detachment time (slow)", "result": 0.68, "unit": "s"}]}
